In patent US20240368234A1:

Target: MBP-SpyTag
Assay: SDS-PAGE coupling assay, biotin-HPDP-modified Catcher, without TCEP, one hour

loss of activity: 50%
B1: SpyCatcher Ala87→Cys modified with biotin-HPDP (designed binder)
chain: VTTLSGLSGEQGPSGDMTTEEDSATHIKFSKRDEDGRELAGATMELRDSSGKTISTWISDGHVKDFYLYPGKYTFVETAAPDGYEVCTPIEFTVNEDGQVTVDGEATEGDAHT
